T1: Human OX40 ECD-AFH (human)
T1 construct: ECD'; entry includes the C-terminal tags; also called OXF003; Human OX40 ECD-avi-flag-his
T1 chain: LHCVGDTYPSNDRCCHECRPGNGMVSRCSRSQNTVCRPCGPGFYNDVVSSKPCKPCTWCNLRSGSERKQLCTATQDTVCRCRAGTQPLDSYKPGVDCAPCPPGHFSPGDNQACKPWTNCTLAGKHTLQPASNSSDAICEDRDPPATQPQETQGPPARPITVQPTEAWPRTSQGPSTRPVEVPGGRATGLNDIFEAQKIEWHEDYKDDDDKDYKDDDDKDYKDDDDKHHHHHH

T2: Cyno 4-1BB ECD-AFH (cynomolgus monkey)
T2 construct: entry includes the tags; also called FOB004; Cyno CD137 ECD-avi-flag-his
T2 chain: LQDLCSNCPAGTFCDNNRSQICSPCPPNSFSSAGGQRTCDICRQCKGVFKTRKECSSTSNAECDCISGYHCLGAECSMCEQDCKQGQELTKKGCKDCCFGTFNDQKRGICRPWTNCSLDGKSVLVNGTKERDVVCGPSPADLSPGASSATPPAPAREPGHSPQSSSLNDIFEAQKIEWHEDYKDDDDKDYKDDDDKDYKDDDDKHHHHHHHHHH

T3: Cyno OX40-AFH (cynomolgus monkey)
T3 construct: entry includes the tags; also called OXF005; cyno OX40 ECD
T3 chain: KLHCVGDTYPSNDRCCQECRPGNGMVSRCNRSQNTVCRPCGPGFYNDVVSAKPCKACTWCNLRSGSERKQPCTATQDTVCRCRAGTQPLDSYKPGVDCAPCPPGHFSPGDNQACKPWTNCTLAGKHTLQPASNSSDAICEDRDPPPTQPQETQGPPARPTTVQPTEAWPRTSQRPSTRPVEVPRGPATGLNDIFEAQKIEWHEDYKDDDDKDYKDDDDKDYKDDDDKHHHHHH

T4: Full-length Cyno OX40 (cynomolgus monkey, UniProt P43489 29-277 (human entry))
T4 construct: on CHO-K1SV cells; also called OXF004; cynomolgus OX40
T4 chain: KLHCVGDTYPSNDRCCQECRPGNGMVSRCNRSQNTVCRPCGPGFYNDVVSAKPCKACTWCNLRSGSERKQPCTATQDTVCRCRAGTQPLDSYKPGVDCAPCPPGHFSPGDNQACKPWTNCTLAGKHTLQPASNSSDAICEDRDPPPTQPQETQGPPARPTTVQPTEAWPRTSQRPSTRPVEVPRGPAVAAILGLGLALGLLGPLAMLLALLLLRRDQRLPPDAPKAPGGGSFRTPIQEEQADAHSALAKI

T5: Full-length Human OX40 (human, UniProt P43489 29-277)
T5 sequence: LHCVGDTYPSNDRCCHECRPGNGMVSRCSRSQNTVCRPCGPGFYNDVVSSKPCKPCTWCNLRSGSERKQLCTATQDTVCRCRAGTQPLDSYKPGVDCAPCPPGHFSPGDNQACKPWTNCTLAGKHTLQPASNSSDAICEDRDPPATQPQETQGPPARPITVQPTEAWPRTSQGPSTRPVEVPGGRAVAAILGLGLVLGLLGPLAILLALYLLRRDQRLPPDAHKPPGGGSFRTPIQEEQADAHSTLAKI

T6: Full-length Cyno 4-1BB (cynomolgus monkey, UniProt Q07011 24-255 (human entry))
T6 construct: on Jurkat or CHO cells; also called FOB006; cynomolgus 4-1BB
T6 chain: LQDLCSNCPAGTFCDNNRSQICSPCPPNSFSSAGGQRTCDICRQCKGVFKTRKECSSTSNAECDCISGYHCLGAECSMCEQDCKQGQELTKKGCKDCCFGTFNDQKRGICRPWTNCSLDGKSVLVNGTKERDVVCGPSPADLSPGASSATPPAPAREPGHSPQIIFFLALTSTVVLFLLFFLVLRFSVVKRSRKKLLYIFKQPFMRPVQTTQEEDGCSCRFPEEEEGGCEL


Key:
Human OX40 ECD-AFH = biological target: T1, Human OX40 ECD-AFH; experiment: SPR (Biacore 8K), construct captured, monovalent ECD
Experimental: (§1) Mouse anti-human IgG (GE, BR-1008-39) at 25 μg/ml in 10 mM sodium acetate pH 5.0 was immobilized at a density of ˜10,000 response units (RU) onto each flow cell of a CM5 research-grade sensor chip (GE) by standard amine coupling chemistry. Each binding protein at approximately 100 nM in HBS-EP+ with 0.2% BSA buffer was captured in a flow cell with the immobilized anti-human IgG at a flow rate of 10 μL/min for 20 seconds, leaving one flow cell surface unmodified as the reference. Using a single-cycle kinetics mode, five different concentrations of ECD were sequentially injected through each flow cell at 30 μL/min for 300 seconds followed by a 600 second dissociation period. Regeneration was achieved by injection of 3 M MgCl₂ at a flow rate of 30 μL/min for 30 seconds followed by HBS-EP+ with 0.2% BSA buffer stabilization for 1 min.
(§2) Sensorgrams obtained from kinetic SPR measurements were analyzed by the double subtraction method. The signal from the reference flow cell was subtracted from the analyte binding response obtained from flow cells with immobilized or captured ligands. Buffer reference responses were then averaged from multiple injections. The averaged buffer reference responses were then subtracted from analyte binding responses, and the final double-referenced data were analyzed with Biacore T200 Evaluation software (2.0, GE), globally fitting data to derive kinetic parameters. All sensorgrams were fitted using a simple one-to-one binding model.
(§3) Using the BIACORE 8K SPR system, the affinity of these constructs for human and cyno 4-1BB, and human and cyno OX40 ECD, were determined using the methods described above. Monovalent binding affinity was determined by capturing the ADAPTIR™ bispecific construct on the chip and injecting monovalent ECD of the target at multiple concentrations.

Human 4-1BB ECD-AFH = biological target: T7, Human 4-1BB ECD-AFH (human); experiment: as above
T7 construct: entry includes the tags; also called FOB003; HUMAN CD137 ECD-AVI-FLAG-HIS
Experimental: as §1, §2, §3

Cyno 4-1BB ECD-AFH = biological target: T2, Cyno 4-1BB ECD-AFH; experiment: as above
Experimental: as §1, §2, §3

Cyno OX40-AFH = biological target: T3, Cyno OX40-AFH; experiment: as above
Experimental: as §1, §2, §3

Full-length Cyno OX40 = biological target: T4, Full-length Cyno OX40; experiment: flow cytometry on CHOK1SV cells transfected with cynomolgus OX40, goat anti-human Fc secondary antibody, MFI (Mean)
Experimental: (§4) Serial dilutions of ADAPTIR™ constructs were incubated with transfected target cells and subsequently labelled with a fluorescently-conjugated goat-a-human Fc secondary antibody. […] (See Example 25.)

Full-length Human OX40 = biological target: T5, Full-length Human OX40; experiment: cell-based or functional assay
Full-length Human 4-1BB = Full-length Human 4-1BB (human, UniProt Q07011 24-255); experiment: cell-based or functional assay
Full-length Cyno 4-1BB = biological target: T6, Full-length Cyno 4-1BB; experiment: flow cytometry on Jurkat cells transfected with cynomolgus 4-1BB, goat anti-human Fc secondary antibody, MFI (Mean)
Experimental: as §4

| Kd (Human OX40 ECD-AFH) [nM] | koff (Human OX40 ECD-AFH) [s⁻¹] | kon (Human OX40 ECD-AFH) [M⁻¹ s⁻¹] | Kd (Human 4-1BB ECD-AFH) [nM] | koff (Human 4-1BB ECD-AFH) [s⁻¹] | kon (Human 4-1BB ECD-AFH) [M⁻¹ s⁻¹] | Kd (Cyno 4-1BB ECD-AFH) [nM] | koff (Cyno 4-1BB ECD-AFH) [s⁻¹] | kon (Cyno 4-1BB ECD-AFH) [M⁻¹ s⁻¹] | Kd (Cyno OX40-AFH) [nM] | koff (Cyno OX40-AFH) [s⁻¹] | kon (Cyno OX40-AFH) [M⁻¹ s⁻¹] | EC50 (read off the curve) (Full-length Cyno OX40) [nM] | OX40 Reporter Assay EC50 (Full-length Human OX40) [nM] | OX40 Reporter Assay Max induction (Full-length Human OX40) | 4-1BB Reporter Assay EC50 (Full-length Human 4-1BB) [nM] | 4-1BB Reporter Assay Max induction (Full-length Human 4-1BB) | EC50 (read off the curve) (Full-length Cyno 4-1BB) [nM] | Binder |
| --- | --- | --- | --- | --- | --- | --- | --- | --- | --- | --- | --- | --- | --- | --- | --- | --- | --- | --- |
| < 1 | 0.00036 | 910000 | 18 | 0.0048 | 260000 | 70 | 0.0077 | 110000 | < 1 | 0.00029 | 1.1e+06 | 1 to 2 | 0.017 | 5.9e+06 | 0.021 | 1.38e+06 | ~0.3 | FXX01110 (bispecific antibody, ADAPTIR anti-4-1BB x anti-OX40, pI variant of the anti-OX40 scFv) EVQLVQSGAEVKKPGASVKVSCKASGYTFTSYWMNWVRQAPGQGLEWMGNIYPSGGSTNYAQKFQGRVTMTVDTSTSTVYMELSSLRSEDTAVYYCASFSDGYYAYAMDYWGQGTLVTVSSGGGGSGGGGSGGGGSGGGGSEIVMTQSPATLSLSPGERATLSCRASQSVSSYLNWYQQKPGQAPRLLIYYASRRHTGIPARFSGSGSGTDFTLTISSLQPEDFAVYYCQQGYNLPYTFGQGTKVEIKEPKSSDKTHTCPPCPAPPAAAPSVFLFPPKPKDTLMISRTPEVTCVVVDVSHEDPEVKFNWYVDGVEVHNAKTKPREEQYNSTYRVVSVLTVLHQDWLNGKEYKCAVSNKALPAPIEKTISKAKGQPREPQVYTLPPSRDELTKNQVSLTCLVKGFYPSDIAVEWESNGQPENNYKTTPPVLDSDGSFFLYSKLTVDKSRWQQGNVFSCSVMHEALHNHYTQKSLSLSPGGGGSPSSYVLTQPPSVSVAPGQTARITCGGNNIGSKSVNWFQQKPGQAPVLVVYDDSGRPSGIPARFSGSTSGNTATLTISRVEAGDEADYYCQVWDSSSDHVVFGGGTKLTVLGGGGSGGGGSGGGGSGGGGSQVQLVESGGGVVQPGRSLRLSCAASGFTLSYYGMHWVRQAPGKGLEWVAAISHDGSDKYYADSVKGRFTISRDNSKNTLYLQMNSLRAEDTAVYYCSNDQFDPWGQGTLVTVSSR |
| < 1 | 0.00057 | 790000 | 17 | 0.0045 | 260000 | 77 | 0.008 | 100000 | < 1 | 0.00031 | 870000 | 1 to 2 | 0.019 | 6.17e+06 | 0.014 | 1.45e+06 | ~0.3 | FXX01112 (bispecific antibody, ADAPTIR anti-4-1BB x anti-OX40, pI variant) EVQLVQSGAEVKKPGASVKVSCKASGYTFTSYWMNWVRQAPGQGLEWMGNIYPSGGSTNYAQKFQGRVTMTVDTSTSTVYMELSSLRSEDTAVYYCASFSDGYYAYAMDYWGQGTLVTVSSGGGGSGGGGSGGGGSGGGGSEIVMTQSPATLSLSPGERATLSCRASQSVSSYLNWYQQKPGQAPRLLIYYASRRHTGIPARFSGSGSGTDFTLTISSLQPEDFAVYYCQQGYNLPYTFGQGTKVEIKEPKSSDKTHTCPPCPAPPAAAPSVFLFPPKPKDTLMISRTPEVTCVVVDVSHEDPEVKFNWYVDGVEVHNAKTKPREEQYNSTYRVVSVLTVLHQDWLNGKEYKCAVSNKALPAPIEKTISKAKGQPREPQVYTLPPSRDELTKNQVSLTCLVKGFYPSDIAVEWESNGQPENNYKTTPPVLDSDGSFFLYSKLTVDKSRWQQGNVFSCSVMHEALHNHYTQKSLSLSPGGGGSPSSYVLTQPPSVSVAPGQTARITCGGNNIGSKSVNWFQQKPGQAPVLVVYDDSGRPSGVPSRFSGSTSGNTATLTISRVEAGDEADYYCQVWDSSSDHVVFGGGTKLTVLGGGGSGGGGSGGGGSGGGGSQVQLVESGGGVVQPGRSLRLSCAASGFTLSYYGMHWVRQAPGKGLEWVAAISHDGSDKYYADSVKGRFTISRDNSKNTLYLQMNSLRAEDTAVYYCSNDQFDPWGQGTLVTVSSR |
| < 1 | 0.00031 | 890000 | 15 | 0.0046 | 300000 | 82 | 0.0078 | 95000 | < 1 | 0.00028 | 980000 | 1 to 2 | 0.016 | 6.1e+06 | 0.019 | 1.37e+06 | ~0.3 | FXX01113 (bispecific antibody, ADAPTIR anti-4-1BB x anti-OX40, pI variant) EVQLVQSGAEVKKPGASVKVSCKASGYTFTSYWMNWVRQAPGQGLEWMGNIYPSGGSTNYAQKFQGRVTMTVDTSTSTVYMELSSLRSEDTAVYYCASFSDGYYAYAMDYWGQGTLVTVSSGGGGSGGGGSGGGGSGGGGSEIVMTQSPATLSLSPGERATLSCRASQSVSSYLNWYQQKPGQAPRLLIYYASRRHTGIPARFSGSGSGTDFTLTISSLQPEDFAVYYCQQGYNLPYTFGQGTKVEIKEPKSSDKTHTCPPCPAPPAAAPSVFLFPPKPKDTLMISRTPEVTCVVVDVSHEDPEVKFNWYVDGVEVHNAKTKPREEQYNSTYRVVSVLTVLHQDWLNGKEYKCAVSNKALPAPIEKTISKAKGQPREPQVYTLPPSRDELTKNQVSLTCLVKGFYPSDIAVEWESNGQPENNYKTTPPVLDSDGSFFLYSKLTVDKSRWQQGNVFSCSVMHEALHNHYTQKSLSLSPGGGGSPSSYVLTQPPSVSVAPGQTARITCGGNNIGSKSVNWFQQKPGQAPVLVVYDDSGRPSGIPARFSGSTSGNTATLTISRVEAGDEADYYCQVWDSSSDHVVFGGGTKLTVLGGGGSGGGGSGGGGSGGGGSQVQLVESGGGVVQPGRSLRLSCAASGFTLSYYGMHWVRQAPGKGLEWVAAISHDGSDKYYADSVKGRFTISRDNSKNRLYLQMNSLRAEDTAVYYCSNDQFDPWGQGTLVTVSSR |

Source: patent publication US20220242962A1 (APTEVO RESEARCH AND DEVELOPMENT, published 2022)
